Measurements published in the domain aggregation screens of Martell et al. (2025).

assay: soluble fraction after stress (log2 fold change); higher = more stays soluble; pooled small domains, quantitative proteomics; settings: stress: 50 degC
Summary of the method: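 Each library was heated to 50°C as a stress step. The libraries, made up of small protein domains, were pooled and analysed at high throughput by quantitative proteomics. The reported value is the base-two logarithm of the fold change in each protein's soluble amount after stress, taken as a measure of aggregation propensity. The higher the value, the more protein stays in solution.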

Sequence | soluble fraction (log2)
HMALPGESVYVSILQSGSNRDQGVGYLDDGTMVVVDGAIKDIGKSIEVVINKSHQTVAGKMLFAKKVA | -0.0558
HMALPQPDDDRQDTKKRILDMAEDLLLTRGFNAFSYQHISSELGMKNAAIHYHYPKKNDLGVAVIQRYRRR | 0.151
HMALQDKYAELLTAANTMGVTNLAVAEKDGTLHVSGTAKSTADYDSLWALYDKIDPNMASGDLMMNI | 0.0408
HMALQDKYKELTDAATAAGVTDLQVREQDNVLYIDGTAPSGAVKDQLWAIYDKIDPNFVSGDLVLNVNVD | 0.0655
HMALTLDEARTQGRVGETFYGYLVALKTDAETEKLVNDINAERKASYQQLAKQNNVSVDDIAKLAGQKLV | 0.0405
HMALWFDEWKKYQDTIASADLLPDKAERDALIAQAEDRFNYWMDIYPRSASLNHSFDDLYEEHRRKIE | -0.75
HMAMDYEGFKKSVYALTSIDLNAYKERQMKRRIDTLIAKNKYNGYEDYTAAIKKDKALFEEFVNYLTIN | -0.284
HMAMMTKQRLIQLIHIARNDLQMDEDTYRQMLQGLTGKASTKGMDTPQLNRVLESMKKKGFRIK | -0.447
HMAMNLQETVLMQLRDLILRGTFEPGQRLSEQPLAERLKASRTPVRSALVTLEQEGLIEASETGKYLVRQ | -0.421
HMAMTNEEREALISEIKQTVNNSIDLKKDISDTEIKEAITQAVFERSEKSYLSIAEKQDIITAVFNSMR | 0.0202
HMANADVVLVDLDKEYTVDAAKFHSVVKHSPFNGFAVKGAPVLTIVRGTVVAENGEVVGQPGHSKMVRP | -0.0579
HMANEGWDIYKLDIRNHKQPNGEYYSEKEIQSTINNTFGKGSFNVDWKKYEKDKEYREKTNYYYFQAKYFV | -0.19
HMANHIAAIHVLKSKLQMSDSDYRVLITGLTQKASTKDMSDIERQRVRDHMQGLAERMGVVK | -0.18
HMANIAVTIPTGSSGDRIADILLQAGLIKDKQDFNQAVIAAGAEGKLRAGYFVIPSNATPAEIISILT | -0.695
HMANILKHKNKDGVITSYTIRVYHGYDEAGKRLRPYTMNYKPAPNMTARQIEKELNRQAVQFEEQIKNGYA | -0.699
HMANKLTSTNLAKQHKMGLSEMYAELMNSGYLIEKDGKYELTPLGISIGGESKPNRYKKGEFYFLWPSDIS | -0.29
HMANLLNLREIPVANIRPELTMFLIPGENITQAFQTIRDQVVFTNKRLIVANVQGLTGKKVSYTSYPY | -0.374
HMANPFQELTERELDVLRQVAAGKNNREIAEALFIGEKTVKTHISNILSKLHLADRTQAAVYAWQQGMM | -0.0277
HMANTVVMPNLLGKTMTEAKIELKELGIDITLKGSESSSKYSAGQIMEQNIAEGTKVEVGSSVEVTIAGS | -0.306
HMAPAPDEAFAEFVRSSAPSLTRTAWLLTGDRGHAQDLVQNAYAKTLQAWGRLDAEGALAYTRRAVIT | 0.00536
HMAPDGIEDKEGWLKVLPMITNLSIQMQNLQARGMDYEHIRNLLHETLLRYDDRIDSNLFIPNV | 4.47e-05
HMAPDNDELEKAKKIVNAFIEAKAKGLGVVSLGTKMIDAPVVKRAQKIIDQTIVMGKLSLNWQDEFFN | -0.0351
HMAPEVTVHDGSIVVRGHVGGVTVYDESGRQIASVQSRGAVAIPVPAGHTYLYIVKPEGKPAIKVRAAH | 0.0927

Sequence | soluble fraction (log2)
HMAPKSALKIIEQISNNPRATMTDLANLTGYSRRWVAQTIKRLQEENIIKRIGSDKSGYWEIIG | -0.321
HMAPLATLEADGNGAVKLPNLAGHAIREVAAALGGANLALIPIGSGTSWKQNPAPGTILHKGDTVTVYF | -0.0832
HMAPLEPLTDRETEMLVRLANGASNKVMARESFVSENTIKFHLKNIYAKLGVTSRLQAIAAARNQGLI | -0.891
HMAPLRTQYVNVNYANAAEIKTLISGADKEVGSLLSERGSVVVDKRTNTLIIQDTQARLNDIGDLIEQLD | -0.0505
HMAPMYGEFENVRLTDAQLDKLNARFPPEQVQREIEALSGYMRSKGKRYADHYATLLNWLRRDFPP | -0.202
HMAPNVEENSKLIGEIGMTLTPLRPSGIATINNRRVDVVSNGDFIDQDERVMVKRVQGARVVVIPV | 0.109
HMAPPDFTTFMRNYQDMVYSTAVRLIGNETQAEDIAQEVFIKAHAHFENLRTSPSAGGWLKTVATNLSIN | -0.997
HMAPQAETLLRQVMALPSKDRAVLYLHYYEGFSTREVGDMLHISQSAVTTRLLRARKKLKEIL | 0.0889
HMAPRLTERERQVLQLIAEGLTSMQIGDRLHIAASTVDVHRRNLMRKLDLHNVADLTRYAITQGISP | -0.0624
HMAPRQDIAYYTVKPGDTVLAIAEKFGLQPETLMWSNSIIEQNPDRLSIGDELRILPVDGVLHVVK | 0.0612
HMAPRSSAVYFYLSQVALKKNQPRKAEAMARRGLTVSQDANRRRALWQLILRSGQAQNNTRVIREAQQAL | 0.19
HMAPSLSEYAYEEIKHAIERGVYPPGAKLITQEIADRLGISRTPVVAAVNRLTAEGYADAVPQHGIFVK | 0.0573
HMAPVLTRREHEVLHLLTDGLDNRTIARNLFISEATVKFHLHNIMGKFGVHRRAALVSTALRG | -2.21
HMAPVTPEERAQAMEEYKAMVTIEGYTPPKNIIEQNYKRGLWSETMLNMAVTKGAITEAEKLEIMN | 0.124
HMAQIVNLPRKNVNGASYYYYEVQPKETIYSISRKLGVSGAEIQRHNPSVADGLKIGQVLYFPAEG | 0.0843
HMAQLPADMSKVKSADISEAQLQEFIQKATSSGYNMNQIEMEFAKRGMSENEVSLLRPRLRRLMAS | -0.031
HMAQLSDDEQAIIDTITRRGDATMSELIASVNVSTPRLMSMLIDMEFRSLITALPGGRYQIRLIN | -0.912
HMAQLTPREREVLVLIAEGKSNKEIADQLNIGVRTIETHRERIMRRLNIHSVAGLTKYAIANGLVTL | 0.116
HMAQPIPSGADIRAAREAAGMTLRRFAEYIAGPDFSTWSRYETGKPIRVKNISPEVWQRVRKFIAQNKG | -0.0609
HMAQQEMEIIPLRHRQVEQVMPTLRPLLEPGAALSGMNNQLILRASRKNREEIKQALAVIDT | 0.172
HMAQSEDLMVMAQRILGGPEAQSFFQAEATRQGLAGFLPEPIPDFLQRLERKLSGSVGSATAHAMVAQTMG | -0.179
HMAQSLAQKINNYILTNRSSIANVAKSIGYSRTTVSRYLAGKYDSDPTDLENKLAEFLAHETGE | 0.076
HMAQTEIIRVTKDIKKGDAITADKFEKVKVGAYNLPGNVVKNADELKGKFAAADLVRGDYILTSKLTDNP | 0.146

Sequence | soluble fraction (log2)
HMAQVRSTVERRENGTYTVELNLNDDVDNVMRLQLMVATKEMAEDLAQRFQKNPEQVYSQLVTALYG | 0.0631
HMAQVSDDAELEKWADTAIDEHPKPVEEYRAGNAASINFLMGQVMKMSRGKANPGAVMQILKQKLD | 0.109
HMAQVSDTGAIAKIVADAIAANPKQVQQYLDGNEKVLMYLVGQVMKLSKGKANPPMVIQLLKEQLG | -0.0543
HMAQVSDTGELEGVVDGVLAANAKSVADFQAGKENAFQYLIGQVMKETKGKANPEVVATLLRTKLS | -0.382
HMARAGKLAQDMAVWTKETMLNTERNFISLRHFKRELLRRTLAPGESEQTVRAMEEAGYIQVKDGLVFPIK | -1.74
HMAREQISVSQMVRDVRDGQVKNIEVLGQELRLSYADGSQKVTRKEEGQQALEILFASDIDLAALDLEVQ | 0.0848
HMARIDYHAMDSDDLSFSEGELLEIYDKPGSFWWKGRSLVSGDEGDIPS | -0.157
HMARKFQKDTGYLNKKERTWLLDFFPSLKKYLYTGAYIRSIIVVESNVTYTDKELPSNYTFTYKFA | -0.252
HMARKISVEALGKYFPNSPMLAAAVAVTGVMKKDEFIHEMRASYKHKFAKKPEVIDGNMKALTMTFEA | -0.126
HMARNHYETLGVGRTATGDEIRKAYRSEAQKHHPDRGGDAERMQSLNEARDTLLDDQARAAYDQELDL | 0.125
HMARPLLSPREQDVLALIARGFSYSEVARLQAVTVHTIRTHIRNLYAKLSVHSKTEAVFEATRMGLLP | -1.63
HMARRKRDIDSDINVKVFEHWLDNLDSASRESFSAFAEETFSPIQVYLYAKFLGYESSIIAVDHWVAVAYP | 0.104
HMARSVAEFVERGRSGGSLERPKLQRMLEYIQDRPVDFVIVHKIDRLARNRADDAAITKTIRGAGAYLVST | -0.0402
HMARTGSEELVGALATVREPLAPWGQVFVQGALWRARSADGGPVDAGQQVVVRAVEGLTLVVEPRD | 0.00428
HMARYSMLEEQLLQLINKHGTMSTPKLVEATGAPRSTVTYQLRKLLESGTIERTQPARSPKQSYRIKS | -0.238
HMASATGVVTAASLNVRSGAGTNYSVVNTLAKGTKVTVLNTADGWYEIEATVNNEKITGYVSATYIAMD | 0.222
HMASLSRRELEVLELLALRLTVKEVAERLVISELTAKRHTSNIYQKLGVNRRRDALAAAQARGLLGAR | -2.9
HMASRSQTEIMHLLSSGLPKHELVTALQSLLGISKPTAYKYLSQDVSIAYDHMVKILEYPPFQRVLYQ | -1.34
HMASSVKAPLPGVILDIKVKVGDTIKNGDTVVILEAMKMENNIHSDKDGVVKSIEVNKGDSVLEGATLLTI | -0.0654
HMASVDDILDRFKQAAKVTTDADLAKVLGLSRQSIAAARLRAKIPASWFPKMSSLFNISTEWLYRG | -0.628
HMASVRPVAPPDPKTHTRLTYRIRRGDTLERIGRRYRVSIAEIQAWNTLRDPGDILAGQRLVIWIPTS | -2.3
HMATAPQIRAIYALGSKLGINQNSREDNLHQLVYSITGKESIKGLTNYEAARVQSELANMERK | 0.22
HMATEPLQPRVEVLGSTLATTNGARIVGVYDMSGREVSATQLSKGVYIVKVTNGSVTATQKVFI | 0.112
